# From patent publication US10739331B2, “OMA1 activity assay” (BioVentures, LLC, priority 2017, dated 2020)
# “Also recorded” adds a separate entry of the source. Non-standard residues stand in square brackets, D forms with d. Residues, ends and D or L forms follow the SMILES beside them. No end group written: not given here. *: point of attachment. Sta = CC(C)C[C@H](N)[C@@H](O)CC(=O)O; Mca = COc1ccc2c(CC(=O)*)cc(=O)oc2c1; DNP = 2,4-Dinitrophenyl, quencher; Isovaleryl = CC(C)CC(=O)*
# Columns and labels:
# OMA1 [1] = assay: Live-cell OMA1 activity assay with mitochondrial targeted FRET peptide; format: cell-based, rat; conditions: NRK-52E cells, FRET peptide 10 μM, 4 hr, antimycin A 50 nM, 30 min, preliminary
# Description: Live-Cell OMA1 activity assay: To deliver the FRET OMA1 peptide to mitochondria in living cells, we utilized a modified short Szeto-Schiller (SS) peptide sequence1 attached to the amino terminus of the 8 amino acid FRET sequence (custom synthesized by LifeTein) (FIG. 5A). […] Small molecule/peptide library subsets or novel peptides will be screened for inhibitory activity using this live-cell OMA1 assay.
# Live-cell OMA1 activity assay preliminary results: To deliver the FRET peptide to mitochondria in living cells, we have used a modified short Szeto-Schiller (SS) mitochondrial targeting peptide sequence1 (d-arginine, dimethyl tyrosine, ornithine, tryptophan) attached to the amino terminus of the eight amino acid FRET sequence (FIG. 5A). Normal rat kidney (NRK-52E; ATCC No. CRL-1571) cells were plated on black 96-well cell culture plates (10,000 cells/well). The next day, the cell permeable peptide was added to cells (10 μM; 4 hr; 37° C.) followed by exposure to ATP depletion/antimycin A (50 nM; 30 min) and OMA1 activity measured (ex/em 320/405) using a plate reader. […] Future studies will optimize the mitochondrial targeting sequence so that the highest efficiency of mitochondrial localaization without altering mitochondrial oxidant levels will be achieved, which we predict will yield the highest sensitivity for the live-cell OMA1 activity assay.
# OMA1 [2] = target: T1, OMA1 (Homo sapiens, UniProt Q96E52); conditions: prior studies (refs 12, 24); cited from earlier work
# T1 sequence (Q96E52 144-524): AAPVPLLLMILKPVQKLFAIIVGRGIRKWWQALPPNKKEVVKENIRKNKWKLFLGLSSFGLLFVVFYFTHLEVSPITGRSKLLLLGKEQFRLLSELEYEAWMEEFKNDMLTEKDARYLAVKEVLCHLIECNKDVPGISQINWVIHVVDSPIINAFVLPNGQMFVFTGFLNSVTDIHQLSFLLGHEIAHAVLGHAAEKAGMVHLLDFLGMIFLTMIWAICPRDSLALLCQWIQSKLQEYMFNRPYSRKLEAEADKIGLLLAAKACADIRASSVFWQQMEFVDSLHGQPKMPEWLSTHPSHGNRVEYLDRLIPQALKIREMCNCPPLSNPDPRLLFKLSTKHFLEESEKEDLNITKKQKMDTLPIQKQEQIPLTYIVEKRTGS
# OMA1 [3] = target: T2, OMA1 (Rattus norvegicus, UniProt D3ZS74); assay: OMA1 activity assay (OPA1 FRET substrate) in NRK cell lysates; format: biochemical; conditions: for decrease of OMA1 activity compared to the standard substrate sequence: modified 8-mer FRET substrate vs AFRATDHG
# T2 construct: Renal cell lysates from normal rat kidney (NRK) epithelial cell line were prepared; endogenous in cells; host or cells: NRK-52E (ATCC CRL-1571), RIPA lysate, 5 µg protein per well
# T2 sequence (D3ZS74 123-504): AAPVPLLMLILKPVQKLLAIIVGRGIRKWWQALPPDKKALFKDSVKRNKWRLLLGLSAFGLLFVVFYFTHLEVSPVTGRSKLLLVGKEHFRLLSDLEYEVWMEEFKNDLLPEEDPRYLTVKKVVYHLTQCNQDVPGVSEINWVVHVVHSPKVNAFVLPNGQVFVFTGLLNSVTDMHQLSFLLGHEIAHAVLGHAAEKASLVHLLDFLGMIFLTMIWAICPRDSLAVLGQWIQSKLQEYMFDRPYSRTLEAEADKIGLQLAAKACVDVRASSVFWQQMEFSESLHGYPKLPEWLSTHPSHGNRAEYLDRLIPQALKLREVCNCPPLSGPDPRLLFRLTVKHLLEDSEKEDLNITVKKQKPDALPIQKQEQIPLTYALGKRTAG
# Procedure: Normal rat kidney cells (NRK-52E; ATCC No. CRL-1571) were maintained in a humidified incubator with 5% CO2, 95% air at 37° C. in DMEM containing 5% fetal bovine serum. Renal cell lysates from normal rat kidney (NRK) epithelial cell line were prepared by using radioimmunoprecipitation assay (RIPA) buffer (Pierce) with 1 mM PMSF (Sigma), 1.2 mM Na3VO4 (Sigma), 2.5 mM NaF (Sigma), 1 mM DTT (Sigma), 1× of Halt Protease & Phosphatase inhibitor cocktail (Thermo Scientific), and 5 mM EDTA (Thermo Scientific). Protein concentrations were determined by Coomassie Plus Protein Assay Reagent (Pierce).
# Our OMA1 activity assay utilizes an 8-mer peptide derived from the cleavage sequence of OPA1, which is reported to be specific of OMA1 which is referred as the OPA1 FRET substrate. The peptide contains a fluorogenic MCA moiety on the N-terminus and a DNP quencher moiety on the C-terminus (FIG. 1), which was custom-synthesized by LifeTein LLC and handled accordingly to the manufacturer's instructions. Using a final 100 μl reaction volume and black, opaque 96 well plates (Costar), the reagents were added in the following order: 1) OMA1 activity assay buffer (50 mM of Tris/HCl, pH=7.5, 40 mM of KCl), 2) 5 μg of protein sample, 3)+/−200 μM of the zinc chelator N,N,N′,N′-Tetrakis (2-pyridylmethyl)ethylenediamine (TPEN) resuspended in 100% ethanol and lastly, 4) the OPA1 FRET substrate (5 μM final concentration; dissolved in DMSO). Fluorescence was recorded (excitation/emission of 320/405 nm) once per minute for 30 min at 37° C. using a fluorescent plate reader (SpectraMax M2e, Molecular Devices equipped with SoftMax Pro v5 software).
# For the statistical analysis, the average fluorescence of the OPA1 FRET substrate alone was measured (<150 relative FLS units) and that value was subtracted from the sample values. The values were reported as a difference of TPEN inhibition [(sample X)−(sample X+TPEN)] where the slopes between 0-30 min were calculated (by linear regression) and each treatment were compared to appropriate controls. Thus, OMA1 activity was calculated by […] to enhance specificity.
# OMA1 [4] = target: T2, OMA1; assay: OMA1 activity assay in rat renal mitochondrial lysates after cold storage / transplantation; format: biochemical; conditions: cold storage alone or followed by transplant
# Description: Long-term renal function is compromised in patients receiving deceased donor kidneys which require cold storage exposure prior to transplantation. It is established that extended cold storage plus transplantation of kidneys induces renal mitochondrial dysfunction. To assay OMA1 activity under stress conditions known to induce mitochondrial dysfunction an exemplary reporter molecule of the invention was employed in mitochondrial lysates from control kidneys (CTRL), sham surgery (SH), cold storage alone (CS), or cold storage and transplantation (CS/TX) conditions.
# Our OMA1 activity assay utilizes an 8-mer peptide derived from the cleavage sequence of OPA1, which is reported to be specific of OMA1 which is referred as the OPA1 FRET substrate. The peptide contains a fluorogenic MCA moiety on the N-terminus and a DNP quencher moiety on the C-terminus (FIG. 1), which was custom-synthesized by LifeTein LLC and handled accordingly to the manufacturer's instructions. […] Fluorescence was recorded (excitation/emission of 320/405 nm) once per minute for 30 min at 37° C. using a fluorescent plate reader (SpectraMax M2e, Molecular Devices equipped with SoftMax Pro v5 software).
# OMA1 [5] = target: T2, OMA1; assay: OMA1 activity assay (OPA1 FRET substrate) in NRK cell lysates; format: biochemical; conditions: untreated NRK cell lysates (5 μg), substrate 1-30 μM, Michaelis-Menten
# [6] = Table 2, slope over 30 min, % comparison to AFRATDHG, 2-3 experiments/substrate
# [7] = Table 1, average slope over 30 min compared to AFRATDHG substrate, n = 3
compound,measurement,setting,value
antimycin A,OMA1 activity (fluorescence) in live cells,OMA1 [1],increased OMA1 activity
same,OMA1 activity (fluorescence) in live cells,OMA1 [1]; listed as AMA,induces OMA1 activity
CC(C)CC(=O)N[C@H](C(=O)N[C@H](C(=O)N[C@@H](CC(C)C)[C@@H](O)CC(=O)N[C@@H](C)C(=O)N[C@@H](CC(C)C)[C@@H](O)CC(=O)O)C(C)C)C(C)C [pepstatin A] (Isovaleryl-VV[Sta]A[Sta]-OH),prevention of OMA1-dependent OPA1 cleavage,OMA1 [2],do not prevent OMA1-dependent OPA1 cleavage
"AARAAAAA (Mca-AARAAAAA; not fully specified (C-terminus); also: FRET fluorophore and quencher, sites not given here) [FRET substrate with RA motif flanked by alanine residues]",OMA1 Activity,OMA1 [3]; [6],35%
same,decrease of OMA1 activity compared to the standard substrate sequence,OMA1 [3],65%
"ATDHGSES (Mca-ATDHGSES; not fully specified (C-terminus); also: FRET fluorophore and quencher) [eight amino acid FRET peptide from OPA1 downstream of the cleavage site, no RA motif]",fluorescence of FRET peptide without R-A sequence,OMA1 [3]; FRET peptide downstream of cleavage site,abolished fluorescence
same,OMA1 Activity,OMA1 [3]; [7],2.71%
same,OMA1 Activity,OMA1 [3]; [6],2.71%
CCOC(=O)[C@H]1O[C@@H]1C(=O)N[C@@H](CC(C)C)C(=O)NCCC(C)C [E64D],prevention of OMA1-dependent OPA1 cleavage,OMA1 [2],do not prevent OMA1-dependent OPA1 cleavage
"c1ccc(CN(CCN(Cc2ccccn2)Cc2ccccn2)Cc2ccccn2)nc1 [TPEN, N,N,N′,N′-Tetrakis (2-pyridylmethyl)ethylenediamine]",effect on reporter fluorescence (FLS) increase,OMA1 [4],effectively inhibits FLS increase; also recorded: effectively inhibits the reporter molecule activation
same,"effect on OMA1 activity (slope, FLS/min)",OMA1 [3]; NRK cell lysates with TPEN (200 μM in method) vs untreated lysates,reduced OMA1 activity; also recorded: dramatically decreased fluorescence
CCCCC[C@H](CC(=O)NO)C(=O)N[C@H](C(=O)N1CCC[C@H]1CO)C(C)C [actinonin],"effect on OMA1 activity (slope, FLS/min)","OMA1 [3]; NRK cell lysates, 0.5-1 μM, vs untreated lysates","neither the broad-spectrum MMP inhibitor, batimastat (0.5-1 μM), or the meprin A inhibitor, actinonin (0.5-1 μM), altered OMA1 activity"
same,"effect on OMA1 activity (slope, FLS/min)","OMA1 [3]; NRK cell lysates, 0.5-1 μM, vs untreated lysates, listed as Actinonin",Only TPEN reduced OMA1 activity
AFKATDHG (Mca-AFKATDHG; not fully specified (C-terminus); also: FRET fluorophore and quencher) [FRET substrate with Arg changed to Lys],OMA1 Activity,OMA1 [3]; [6],61%
same,decrease of OMA1 activity compared to the standard substrate sequence,OMA1 [3],~40%
pefabloc/TPCK,prevention of OMA1-dependent OPA1 cleavage,OMA1 [2],do not prevent OMA1-dependent OPA1 cleavage
"AFRATDHG (Mca-AFRATDHG-{DNP}) [MCA-AFRATDHG-DNP, eight amino acid OPA1 S1-site peptide with MCA fluorophore on the N-terminus and DNP quencher on the C-terminus]",OMA1 Activity,OMA1 [3]; [7],100%
same,OMA1 Activity,OMA1 [3]; [6],100%
same,Vmax for cleavage of the OPA1 FRET substrate,OMA1 [5],34.6 FLS/min
same,Km,OMA1 [5]; read-out: Km for cleavage of the OPA1 FRET substrate,7.1 µM
